Test results reported in publication PMC11574045, “A cofactor-induced repressive type of transcription factor condensation can be induced by synthetic peptides to suppress tumorigenesis” (The EMBO Journal, 2024).

Tested on: HEK293FT cells transfected with TF library
Test: Screening of TF condensates based on fluorescent puncta
Format: cell-based
Details: Figure 1B numerical data; TF library screen, one value per transcriptional factor
Method in brief: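 Each TF construct was introduced into HEK293FT cells using PEI at 4.8 μg/ml; glucose deprivation versus normal medium lasted 12 h. Automated confocal-style imaging of tagged TF staining, 50 fields per well, gave the puncta data.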

B1: TRERF1 (protein, UniProt Q96PN7 1-1200, looked up)
Transcriptional-regulating …: MGDQQLYKTNHVAHGSENLFYQQPPLGVHSGLNHNYGNAVTGGGMDAPQASPISPHFPQDTRDGLGLPVGSKNLGQMDTSRQGGWGSHAGPGNHVQLRGNLANSNMMWGAPAQAEPTDGYQYTYSQASEIRTQKLTSGVLHKLDSFTQVFANQNLRIQVNNMAQVLHTQSAVMDGAPDSALRQLLSQKPMEPPAPAIPSRYQQVPQQPHPGFTGGLSKPALQVGQHPTQGHLYYDYQQPLAQVPVQGGQPLQAPQMLSQHMQQMQQHQYYPPQQQQQAGQQRISMQEIQTQPQQIRPSQPQPPPQQQQPQQLQLQQRQGSMQIPQYYQPQPMMQHLQEQQQQQMHLQPPSYHRDPHQYTPEQAHTVQLIPLGSMSQYYYQEPQQPYSHPLYQQSHLSQHQQREDSQLKTYSSDRQAQAMLSSHGDLGPPDTGMGDPASSDLTRVSSTLPHRPLLSPSGIHLNNMGPQHQQLSPSAMWPQMHLPDGRAQPGSPESSGQPKGAFGEQFDAKNKLTCSICLKEFKNLPALNGHMRSHGGMRASPNLKQEEGEKVLPPQPQPPLPPPPPPPPPPQLPPEAESLTPMVMPVSVPVKLLPPKPSSQGFTNSTVAAPSARDKPASSMSDDEMPVLEIPRKHQPSVPKAEEPLKTVQEKKKFRHRPEPLFIPPPPSYNPNPAASYSGATLYQSQLRSPRVLGDHLLLDPTHELPPYTPPPMLSPVRQGSGLFSNVLISGHGPGAHPQLPLTPLTPTPRVLLCRSNSIDGSNVTVTPGPGEQTVDVEPRINIGLRFQAEIPELQDISALAQDTHKATLVWKPWPELENHDLQQRVENLLNLCCSSALPGGGTNSEFALHSLFEAKGDVMVALEMLLLRKPVRLKCHPLANYHYAGSDKWTSLERKLFNKALATYSKDFIFVQKMVKSKTVAQCVEYYYTWKKIMRLGRKHRTRLAEIIDDCVTSEEEEELEEEEEEDPEEDRKSTKEEESEVPKSPEPPPVPVLAPTEGPPLQALGQPSGSFICEMPNCGAVFSSRQALNGHARIHGGTNQVTKARGAIPSGKQKPGGTQSGYCSVKSSPSHSTTSGETDPTTIFPCKECGKVFFKIKSRNAHMKTHRQQEEQQRQKAQKAAFAAEMAATIERTTGPVGAPGLLPLDQLSLIKPIKDVDILDDDVVQQLGGVMEEAEVVDTDLLLDDQDSVLLQGDAEL
Z score of condensed fraction: -0.901

B2: TOX2 (protein, UniProt Q96NM4 1-488, looked up)
TOX high mobility group box …: MQQTRTEAVAGAFSRCLGFCGMRLGLLLLARHWCIAGVFPQKFDGDSAYVGMSDGNPELLSTSQTYNGQSENNEDYEIPPITPPNLPEPSLLHLGDHEASYHSLCHGLTPNGLLPAYSYQAMDLPAIMVSNMLAQDSHLLSGQLPTIQEMVHSEVAAYDSGRPGPLLGRPAMLASHMSALSQSQLISQMGIRSSIAHSSPSPPGSKSATPSPSSSTQEEESEVHFKISGEKRPSADPGKKAKNPKKKKKKDPNEPQKPVSAYALFFRDTQAAIKGQNPSATFGDVSKIVASMWDSLGEEQKQSSPDQGETKSTQANPPAKMLPPKQPMYAMPGLASFLTPSDLQAFRSGASPASLARTLGSKSLLPGLSASPPPPPSFPLSPTLHQQLSLPPHAQGALLSPPVSMSPAPQPPVLPTPMALQVQLAMSPSPPGPQDFPHISEFPSSSGSCSPGPSNPTSSGDWDSSYPSGECGISTCSLLPRDKSLYLT
Z score of condensed fraction: 2.501

B3: BNC2 (protein, UniProt Q6ZN30 1-1099, looked up)
Zinc finger protein …: MAHLGPTPPPHSLNYKSEDRLSEQDWPAYFKVPCCGVDTSQIESEEAEVDVRERETQRDREPKRARDLTLRDSCTDNSMQFGTRTTTAEPGFMGTWQNADTNLLFRMSQQAIRCTLVNCTCECFQPGKINLRTCDQCKHGWVAHALDKLSTQHLYHPTQVEIVQSNVVFDISSLMLYGTQAVPVRLKILLDRLFSVLKQEEVLHILHGLGWTLRDYVRGYILQDAAGKVLDRWAIMSREEEIITLQQFLRFGETKSIVELMAIQEKEGQAVAVPSSKTDSDIRTFIESNNRTRSPSLLAHLENSNPSSIHHFENIPNSLAFLLPFQYINPVSAPLLGLPPNGLLLEQPGLRLREPSLSTQNEYNESSESEVSPTPYKNDQTPNRNALTSITNVEPKTEPACVSPIQNSAPVSDLTKTEHPKSSFRIHRMRRMGSASRKGRVFCNACGKTFYDKGTLKIHYNAVHLKIKHRCTIEGCNMVFSSLRSRNRHSANPNPRLHMPMLRNNRDKDLIRATSGAATPVIASTKSNLALTSPGRPPMGFTTPPLDPVLQNPLPSQLVFSGLKTVQPVPPFYRSLLTPGEMVSPPTSLPTSPIIPTSGTIEQHPPPPSEPVVPAVMMATHEPSADLAPKKKPRKSSMPVKIEKEIIDTADEFDDEDDDPNDGGAVVNDMSHDNHCHSQEEMSPGMSVKDFSKHNRTRCISRTEIRRADSMTSEDQEPERDYENESESSEPKLGEESMEGDEHIHSEVSEKVLMNSERPDENHSEPSHQDVIKVKEEFTDPTYDMFYMSQYGLYNGGGASMAALHESFTSSLNYGSPQKFSPEGDLCSSPDPKICYVCKKSFKSSYSVKLHYRNVHLKEMHVCTVAGCNAAFPSRRSRDRHSANINLHRKLLTKELDDMGLDSSQPSLSKDLRDEFLVKIYGAQHPMGLDVREDASSPAGTEDSHLNGYGRGMAEDYMVLDLSTTSSLQSSSSIHSSRESDAGSDEGILLDDIDGASDSGESAHKAEAPALPGSLGAEVSGSLMFSSLSGSNGGIMCNICHKMYSNKGTLRVHYKTVHLREMHKCKVPGCNMMFSSVRSRNRHSQNPNLHKNIPFTSVD
Z score of condensed fraction: -0.9038

B4: TOX (protein, UniProt O94900 1-526, looked up)
Thymocyte …: MDVRFYPPPAQPAAAPDAPCLGPSPCLDPYYCNKFDGENMYMSMTEPSQDYVPASQSYPGPSLESEDFNIPPITPPSLPDHSLVHLNEVESGYHSLCHPMNHNGLLPFHPQNMDLPEITVSNMLGQDGTLLSNSISVMPDIRNPEGTQYSSHPQMAAMRPRGQPADIRQQPGMMPHGQLTTINQSQLSAQLGLNMGGSNVPHNSPSPPGSKSATPSPSSSVHEDEGDDTSKINGGEKRPASDMGKKPKTPKKKKKKDPNEPQKPVSAYALFFRDTQAAIKGQNPNATFGEVSKIVASMWDGLGEEQKQVYKKKTEAAKKEYLKQLAAYRASLVSKSYSEPVDVKTSQPPQLINSKPSVFHGPSQAHSALYLSSHYHQQPGMNPHLTAMHPSLPRNIAPKPNNQMPVTVSIANMAVSPPPPLQISPPLHQHLNMQQHQPLTMQQPLGNQLPMQVQSALHSPTMQQGFTLQPDYQTIINPTSTAAQVVTQAMEYVRSGCRNPPPQPVDWNNDYCSSGGMQRDKALYLT
Z score of condensed fraction: -0.4918

B5: TRIB3 (protein, UniProt Q96RU7 1-358, looked up)
Tribbles homolog 3: MRATPLAAPAGSLSRKKRLELDDNLDTERPVQKRARSGPQPRLPPCLLPLSPPTAPDRATAVATASRLGPYVLLEPEEGGRAYQALHCPTGTEYTCKVYPVQEALAVLEPYARLPPHKHVARPTEVLAGTQLLYAFFTRTHGDMHSLVRSRHRIPEPEAAVLFRQMATALAHCHQHGLVLRDLKLCRFVFADRERKKLVLENLEDSCVLTGPDDSLWDKHACPAYVGPEILSSRASYSGKAADVWSLGVALFTMLAGHYPFQDSEPVLLFGKIRRGAYALPAGLSAPARCLVRCLLRREPAERLTATGILLHPWLRQDPMPLAPTRSHLWEAAQVVPDGLGLDEAREEEGDREVVLYG
Z score of condensed fraction: -0.9785

B6: TRIM32 (protein, UniProt Q8CH72 1-655, looked up)
E3 ubiquitin-protein ligase …: MAAAAAASHLNLDALREVLECPICMESFTEEQLRPKLLHCGHTICRQCLEKLLASSINGVRCPFCSKITRITSLTQLTDNLTVLKIIDTAGLSEAVGLLMCRGCGRRLPRQFCRSCGVVLCEPCREADHQPPGHCTLPVKEAAEERRRDFGEKLTRLRELTGELQRRKAALEGVSRDLQARYKAVLQEYGHEERRIQEELARSRKFFTGSLAEVEKSNSQVVEEQSYLLNIAEVQAVSRCDYFLAKIKQADVALLEETADEEEPELTASLPRELTLQDVELLKVGHVGPLQIGQAVKKPRTVNMEDSWAGEEGAASSASASVTFREMDMSPEEVAPSPRASPAKQRSSEAASGIQQCLFLKKMGAKGSTPGMFNLPVSLYVTSQSEVLVADRGNYRIQVFNRKGFLKEIRRSPSGIDSFVLSFLGADLPNLTPLSVAMNCHGLIGVTDSYDNSLKVYTMDGHCVACHRSQLSKPWGITALPSGQFVVTDVEGGKLWCFTVDRGAGVVKYSCLCSAVRPKFVTCDAEGTVYFTQGLGLNVENRQNEHHLEGGFSIGSVGPDGQLGRQISHFFSENEDFRCIAGMCVDARGDLIVADSSRKEILHFPKGGGYSVLIREGLTCPVGIALTPKGQLLVLDCWDHCVKIYSYHLRRYSTP
Z score of condensed fraction: -0.9694
